US20090214547A1
Values joined by “and” are separate entries in the source; they are usually repeats but may differ in a detail not shown here. Equal values may be shown once.

Key:
Peptide GNT-07 [1] = test: peptide ELISA, plate 1 overview
Peptide GNT-02 [2] = test: peptide ELISA, plate 1 overview
Peptide GNT-14 [3] = test: peptide ELISA, plate 1 overview
Peptide GNT-08 [4] = test: peptide ELISA, plate 1 overview
Peptide GNT-01 [5] = test: peptide ELISA, plate 1 overview
PsaA Peptide 9144 [6] = test: peptide ELISA, plate 1 overview
PLY Peptide 10146 [7] = test: peptide ELISA, plate 1 overview
Peptide GNT-13 [8] = test: peptide ELISA, plate 1 overview
Peptide GNT-04 [9] = test: peptide ELISA, plate 2
Peptide GNT-05 [10] = test: peptide ELISA, plate 2
Peptide GNT-07 [11] = test: peptide ELISA, plate 2
Peptide GNT-14 [12] = test: peptide ELISA, plate 2
Peptide GNT-08 [13] = test: peptide ELISA, plate 2
Peptide GNT-06 [14] = test: peptide ELISA, plate 2
Peptide GNT-09 [15] = test: peptide ELISA, plate 2
Peptide GNT-061 [16] = test: peptide ELISA, plate 2
Peptide GNT-01 [17] = test: peptide ELISA, plate 2
Peptide GNT-062 [18] = test: peptide ELISA, plate 2
Peptide GNT-10 [19] = test: peptide ELISA, plate 2
PsaA Peptide 9144 [20] = test: peptide ELISA, plate 2
PLY Peptide 10146 [21] = test: peptide ELISA, plate 2
Peptide GNT-13 [22] = test: peptide ELISA, plate 2
Peptide GNT-02 [23] = test: peptide ELISA, plate 1
Peptide GNT-14 [24] = test: peptide ELISA, plate 1
Peptide GNT-08 [25] = test: peptide ELISA, plate 1
Peptide GNT-01 [26] = test: peptide ELISA, plate 1
PsaA Peptide 9144 [27] = test: peptide ELISA, plate 1
PLY Peptide 10146 [28] = test: peptide ELISA, plate 1
Peptide GNT-13 [29] = test: peptide ELISA, plate 1
Peptide GNT-04 [30] = test: peptide ELISA, plate 2 overview
Peptide GNT-05 [31] = test: peptide ELISA, plate 2 overview
Peptide GNT-07 [32] = test: peptide ELISA, plate 2 overview
Peptide GNT-02 [33] = test: peptide ELISA, plate 2 overview
Peptide GNT-14 [34] = test: peptide ELISA, plate 2 overview
Peptide GNT-08 [35] = test: peptide ELISA, plate 2 overview
Peptide GNT-06 [36] = test: peptide ELISA, plate 2 overview
Peptide GNT-09 [37] = test: peptide ELISA, plate 2 overview
Peptide GNT-061 [38] = test: peptide ELISA, plate 2 overview
Peptide GNT-01 [39] = test: peptide ELISA, plate 2 overview
Peptide GNT-062 [40] = test: peptide ELISA, plate 2 overview
Peptide GNT-10 [41] = test: peptide ELISA, plate 2 overview
PsaA Peptide 9144 [42] = test: peptide ELISA, plate 2 overview
PLY Peptide 10146 [43] = test: peptide ELISA, plate 2 overview
Peptide GNT-13 [44] = test: peptide ELISA, plate 2 overview

B1: 22-1C11.1 (antibody, V domains shown)
VH: VKLQESGGGVVQPGRSLRLSCAASGFTFSNYGMHWVRQAPGKGLEWVAVIWYDGSNKYYADFVKGRFTISRDNSKNTLYLQMNSLRAEDTAVYYCARRGNYYGLGSFYYYGMDVWGQGTTVTVSS
VL: DIQMTQSPATLSLSPGERATLSCRASQSVSSYLAWYQQKPGQAPRLLIYDASNRATGIPARFSGSGSGTDFTLTISSLEPEDFAVYYCQQCSNWHPTFGQGTKLEIKR
Elisa reading (Peptide GNT-07 [1]): 0.24 | Elisa reading (Peptide GNT-02 [2]): 2.05 | Elisa reading (Peptide GNT-14 [3]): 0.1 | Elisa reading (Peptide GNT-08 [4]): 0.71 | Elisa reading (Peptide GNT-01 [5]): 0.72 | Elisa reading (PsaA Peptide 9144 [6]): 0.16 | Elisa reading (PLY Peptide 10146 [7]): 1.09 | Elisa reading (Peptide GNT-13 [8]): 0.11 | Elisa reading (Peptide GNT-04 [9]): 0.748 | Elisa reading (Peptide GNT-05 [10]): 0.816 | Elisa reading (Peptide GNT-07 [11]): 0.681 | Elisa reading (Peptide GNT-14 [12]): 0.257 | Elisa reading (Peptide GNT-08 [13]): 0.73 | Elisa reading (Peptide GNT-06 [14]): 0.56 | Elisa reading (Peptide GNT-09 [15]): 0.475 | Elisa reading (Peptide GNT-061 [16]): 0.61 | Elisa reading (Peptide GNT-01 [17]): 1.27 | Elisa reading (Peptide GNT-062 [18]): 0.844 | Elisa reading (Peptide GNT-10 [19]): 0.403 | Elisa reading (PsaA Peptide 9144 [20]): 0.539 | Elisa reading (PLY Peptide 10146 [21]): 1.58 | Elisa reading (Peptide GNT-13 [22]): 0.264 | Elisa reading (Peptide GNT-02 [23]): 2.05 and 2.51 and 3 | Elisa reading (Peptide GNT-14 [24]): 0.1 and 0.22 | Elisa reading (Peptide GNT-08 [25]): 0.71 and 0.91 and 1.52 | Elisa reading (Peptide GNT-01 [26]): 0.72 and 1.16 and 1.7 | Elisa reading (PsaA Peptide 9144 [27]): 0.16 and 0.1 and 0.19 | Elisa reading (PLY Peptide 10146 [28]): 1.09 and 1.71 and 2.24 | Elisa reading (Peptide GNT-13 [29]): 0.11 and 0.12 and 0.25 | Elisa reading (Peptide GNT-04 [30]): 0.75 | Elisa reading (Peptide GNT-05 [31]): 0.82 | Elisa reading (Peptide GNT-07 [32]): 0.68 | Elisa reading (Peptide GNT-02 [33]): > 3 | Elisa reading (Peptide GNT-14 [34]): 0.26 | Elisa reading (Peptide GNT-08 [35]): 0.73 | Elisa reading (Peptide GNT-06 [36]): 0.56 | Elisa reading (Peptide GNT-09 [37]): 0.48 | Elisa reading (Peptide GNT-061 [38]): 0.61 | Elisa reading (Peptide GNT-01 [39]): 1.27 | Elisa reading (Peptide GNT-062 [40]): 0.84 | Elisa reading (Peptide GNT-10 [41]): 0.4 | Elisa reading (PsaA Peptide 9144 [42]): 0.54 | Elisa reading (PLY Peptide 10146 [43]): 1.58 | Elisa reading (Peptide GNT-13 [44]): 0.26
